Measurements: the supplement of paper PMC10567573

B1: DLC1 (parent)
chain: AEVVKIRDSFSNQNTETKDTKSR
B2: ANKRD17 (parent)
chain: EMVRFLLEAGADQEHKTDEMHTAL

Variants of: B1
Test: protein stability index of a GFP-peptide fusion (GPS, HEK-293T) (PSI 1-6); higher = more stable
Conditions: c terminus: native
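Note: lentivirally expressed fusions sorted by FACS into six bins by GFP to DsRed ratio, PSI derived from sequencing read proportions per bin multiplied by bin number.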

Variant	protein stability index
AEVVKIRDSFSNQSTETKDTKSR [N14S]	1.96
AEVVKIRDSFSNQTTETKDTKSR [N14T]	2.55
AEVVKIRDSFSNQVTETKDTKSR [N14V]	1.66
AEVVKIRDSFSNQWTETKDTKSR [N14W]	2.37
AEVVKIRDSFSNQNAETKDTKSR [T15A]	2.14
AEVVKIRDSFSNQNCETKDTKSR [T15C]	2.08
AEVVKIRDSFSNQNDETKDTKSR [T15D]	3.36
AEVVKIRDSFSNQNEETKDTKSR [T15E]	3.38
AEVVKIRDSFSNQNFETKDTKSR [T15F]	2.36
AEVVKIRDSFSNQNGETKDTKSR [T15G]	4.39
AEVVKIRDSFSNQNHETKDTKSR [T15H]	1.77
AEVVKIRDSFSNQNIETKDTKSR [T15I]	1.62
AEVVKIRDSFSNQNKETKDTKSR [T15K]	2.21
AEVVKIRDSFSNQNLETKDTKSR [T15L]	2.17
AEVVKIRDSFSNQNMETKDTKSR [T15M]	1.86
AEVVKIRDSFSNQNNETKDTKSR [T15N]	2.52
AEVVKIRDSFSNQNPETKDTKSR [T15P]	2.08
AEVVKIRDSFSNQNQETKDTKSR [T15Q]	2.98
AEVVKIRDSFSNQNRETKDTKSR [T15R]	1.67
AEVVKIRDSFSNQNSETKDTKSR [T15S]	2.75
AEVVKIRDSFSNQNVETKDTKSR [T15V]	2.38
AEVVKIRDSFSNQNWETKDTKSR [T15W]	2.05
AEVVKIRDSFSNQNYETKDTKSR [T15Y]	1.62
AEVVKIRDSFSNQNTATKDTKSR [E16A]	2.43
AEVVKIRDSFSNQNTCTKDTKSR [E16C]	1.84

Variant	protein stability index
AEVVKIRDSFSNQNTDTKDTKSR [E16D]	3.35
AEVVKIRDSFSNQNTFTKDTKSR [E16F]	3.13
AEVVKIRDSFSNQNTGTKDTKSR [E16G]	2.38
AEVVKIRDSFSNQNTHTKDTKSR [E16H]	3
AEVVKIRDSFSNQNTITKDTKSR [E16I]	1.97
AEVVKIRDSFSNQNTKTKDTKSR [E16K]	3.12
AEVVKIRDSFSNQNTLTKDTKSR [E16L]	1.91
AEVVKIRDSFSNQNTMTKDTKSR [E16M]	1.51
AEVVKIRDSFSNQNTNTKDTKSR [E16N]	2.27
AEVVKIRDSFSNQNTPTKDTKSR [E16P]	2.41
AEVVKIRDSFSNQNTQTKDTKSR [E16Q]	3.17
AEVVKIRDSFSNQNTRTKDTKSR [E16R]	2.31
AEVVKIRDSFSNQNTSTKDTKSR [E16S]	1.9
AEVVKIRDSFSNQNTTTKDTKSR [E16T]	2.06
AEVVKIRDSFSNQNTVTKDTKSR [E16V]	3.04
AEVVKIRDSFSNQNTWTKDTKSR [E16W]	1.95
AEVVKIRDSFSNQNTYTKDTKSR [E16Y]	1.31
AEVVKIRDSFSNQNTEAKDTKSR [T17A]	2.22
AEVVKIRDSFSNQNTECKDTKSR [T17C]	2.11
AEVVKIRDSFSNQNTEDKDTKSR [T17D]	1.83
AEVVKIRDSFSNQNTEEKDTKSR [T17E]	2.43
AEVVKIRDSFSNQNTEFKDTKSR [T17F]	2.54
AEVVKIRDSFSNQNTEGKDTKSR [T17G]	4.08
AEVVKIRDSFSNQNTEHKDTKSR [T17H]	1.73
AEVVKIRDSFSNQNTEIKDTKSR [T17I]	2.41

Variant	protein stability index
AEVVKIRDSFSNQNTEKKDTKSR [T17K]	2.17
AEVVKIRDSFSNQNTELKDTKSR [T17L]	2.34
AEVVKIRDSFSNQNTEMKDTKSR [T17M]	2.68
AEVVKIRDSFSNQNTENKDTKSR [T17N]	1.86
AEVVKIRDSFSNQNTEPKDTKSR [T17P]	2.97
AEVVKIRDSFSNQNTEQKDTKSR [T17Q]	2.61
AEVVKIRDSFSNQNTERKDTKSR [T17R]	1.84
AEVVKIRDSFSNQNTEVKDTKSR [T17V]	1.26
AEVVKIRDSFSNQNTEWKDTKSR [T17W]	3.5
AEVVKIRDSFSNQNTEYKDTKSR [T17Y]	2.31
AEVVKIRDSFSNQNTETADTKSR [K18A]	1.17
AEVVKIRDSFSNQNTETCDTKSR [K18C]	2.84
AEVVKIRDSFSNQNTETDDTKSR [K18D]	1.39
AEVVKIRDSFSNQNTETEDTKSR [K18E]	1.7
AEVVKIRDSFSNQNTETFDTKSR [K18F]	2.59
AEVVKIRDSFSNQNTETGDTKSR [K18G]	2.13
AEVVKIRDSFSNQNTETHDTKSR [K18H]	2.98
AEVVKIRDSFSNQNTETIDTKSR [K18I]	2.26
AEVVKIRDSFSNQNTETLDTKSR [K18L]	3.07
AEVVKIRDSFSNQNTETMDTKSR [K18M]	1.91
AEVVKIRDSFSNQNTETNDTKSR [K18N]	1.98
AEVVKIRDSFSNQNTETPDTKSR [K18P]	2.15
AEVVKIRDSFSNQNTETQDTKSR [K18Q]	1.84
AEVVKIRDSFSNQNTETRDTKSR [K18R]	1.5
AEVVKIRDSFSNQNTETSDTKSR [K18S]	1.98

Variant	protein stability index
AEVVKIRDSFSNQNTETTDTKSR [K18T]	2.2
AEVVKIRDSFSNQNTETVDTKSR [K18V]	2.32
AEVVKIRDSFSNQNTETWDTKSR [K18W]	2.05
AEVVKIRDSFSNQNTETYDTKSR [K18Y]	1.94
AEVVKIRDSFSNQNTETKATKSR [D19A]	1.79
AEVVKIRDSFSNQNTETKCTKSR [D19C]	1.83
AEVVKIRDSFSNQNTETKETKSR [D19E]	2.31
AEVVKIRDSFSNQNTETKFTKSR [D19F]	1.92
AEVVKIRDSFSNQNTETKGTKSR [D19G]	2
AEVVKIRDSFSNQNTETKHTKSR [D19H]	2.07
AEVVKIRDSFSNQNTETKITKSR [D19I]	2.29
AEVVKIRDSFSNQNTETKKTKSR [D19K]	1.85
AEVVKIRDSFSNQNTETKLTKSR [D19L]	2.1
AEVVKIRDSFSNQNTETKMTKSR [D19M]	1.95
AEVVKIRDSFSNQNTETKNTKSR [D19N]	3.63
AEVVKIRDSFSNQNTETKPTKSR [D19P]	3.03
AEVVKIRDSFSNQNTETKQTKSR [D19Q]	1.99
AEVVKIRDSFSNQNTETKRTKSR [D19R]	1.84
AEVVKIRDSFSNQNTETKSTKSR [D19S]	2.19
AEVVKIRDSFSNQNTETKTTKSR [D19T]	3.09
AEVVKIRDSFSNQNTETKVTKSR [D19V]	1.91
AEVVKIRDSFSNQNTETKWTKSR [D19W]	1.45
AEVVKIRDSFSNQNTETKYTKSR [D19Y]	2.69
AEVVKIRDSFSNQNTETKDAKSR [T20A]	1.79
AEVVKIRDSFSNQNTETKDCKSR [T20C]	1.93

Variant	protein stability index
AEVVKIRDSFSNQNTETKDDKSR [T20D]	2.23
AEVVKIRDSFSNQNTETKDEKSR [T20E]	1.64
AEVVKIRDSFSNQNTETKDFKSR [T20F]	1.36
AEVVKIRDSFSNQNTETKDGKSR [T20G]	2.51
AEVVKIRDSFSNQNTETKDHKSR [T20H]	2.09
AEVVKIRDSFSNQNTETKDIKSR [T20I]	2.7
AEVVKIRDSFSNQNTETKDKKSR [T20K]	4.33
AEVVKIRDSFSNQNTETKDLKSR [T20L]	2.71
AEVVKIRDSFSNQNTETKDMKSR [T20M]	1.96
AEVVKIRDSFSNQNTETKDNKSR [T20N]	3.98
AEVVKIRDSFSNQNTETKDPKSR [T20P]	2.88
AEVVKIRDSFSNQNTETKDQKSR [T20Q]	2.42
AEVVKIRDSFSNQNTETKDRKSR [T20R]	4.41
AEVVKIRDSFSNQNTETKDSKSR [T20S]	1.79
AEVVKIRDSFSNQNTETKDVKSR [T20V]	2.61
AEVVKIRDSFSNQNTETKDYKSR [T20Y]	2.1
AEVVKIRDSFSNQNTETKDTASR [K21A]	5.24
AEVVKIRDSFSNQNTETKDTCSR [K21C]	4.39
AEVVKIRDSFSNQNTETKDTDSR [K21D]	5.42
AEVVKIRDSFSNQNTETKDTESR [K21E]	5.2
AEVVKIRDSFSNQNTETKDTFSR [K21F]	4.8
AEVVKIRDSFSNQNTETKDTGSR [K21G]	5.44
AEVVKIRDSFSNQNTETKDTHSR [K21H]	2.96
AEVVKIRDSFSNQNTETKDTISR [K21I]	4.85
AEVVKIRDSFSNQNTETKDTLSR [K21L]	4.19

Variant	protein stability index
AEVVKIRDSFSNQNTETKDTMSR [K21M]	4.99
AEVVKIRDSFSNQNTETKDTNSR [K21N]	5.59
AEVVKIRDSFSNQNTETKDTPSR [K21P]	3.51
AEVVKIRDSFSNQNTETKDTQSR [K21Q]	4.95
AEVVKIRDSFSNQNTETKDTRSR [K21R]	1.71
AEVVKIRDSFSNQNTETKDTSSR [K21S]	5.01
AEVVKIRDSFSNQNTETKDTTSR [K21T]	4.87
AEVVKIRDSFSNQNTETKDTVSR [K21V]	4.89
AEVVKIRDSFSNQNTETKDTWSR [K21W]	3.92
AEVVKIRDSFSNQNTETKDTYSR [K21Y]	3.57
AEVVKIRDSFSNQNTETKDTKAR [S22A]	1.93
AEVVKIRDSFSNQNTETKDTKCR [S22C]	1.82
AEVVKIRDSFSNQNTETKDTKDR [S22D]	3.23
AEVVKIRDSFSNQNTETKDTKER [S22E]	3.8
AEVVKIRDSFSNQNTETKDTKFR [S22F]	4.11
AEVVKIRDSFSNQNTETKDTKGR [S22G]	1.89
AEVVKIRDSFSNQNTETKDTKHR [S22H]	3.48
AEVVKIRDSFSNQNTETKDTKIR [S22I]	3.14
AEVVKIRDSFSNQNTETKDTKKR [S22K]	2.92
AEVVKIRDSFSNQNTETKDTKLR [S22L]	3.48
AEVVKIRDSFSNQNTETKDTKMR [S22M]	4.06
AEVVKIRDSFSNQNTETKDTKNR [S22N]	2.88
AEVVKIRDSFSNQNTETKDTKPR [S22P]	4.53
AEVVKIRDSFSNQNTETKDTKQR [S22Q]	3.03
AEVVKIRDSFSNQNTETKDTKRR [S22R]	2.75

Variant	protein stability index
AEVVKIRDSFSNQNTETKDTKTR [S22T]	3.04
AEVVKIRDSFSNQNTETKDTKVR [S22V]	2.98
AEVVKIRDSFSNQNTETKDTKWR [S22W]	3.96
AEVVKIRDSFSNQNTETKDTKYR [S22Y]	3.36
AEVVKIRDSFSNQNTETKDTKSA [R23A]	5.57
AEVVKIRDSFSNQNTETKDTKSC [R23C]	4.75
AEVVKIRDSFSNQNTETKDTKSD [R23D]	5.6
AEVVKIRDSFSNQNTETKDTKSE [R23E]	5.85
AEVVKIRDSFSNQNTETKDTKSF [R23F]	4.83
AEVVKIRDSFSNQNTETKDTKSG [R23G]	4.84
AEVVKIRDSFSNQNTETKDTKSH [R23H]	5.37
AEVVKIRDSFSNQNTETKDTKSI [R23I]	4.91
AEVVKIRDSFSNQNTETKDTKSK [R23K]	5.49
AEVVKIRDSFSNQNTETKDTKSL [R23L]	5.49
AEVVKIRDSFSNQNTETKDTKSM [R23M]	5.38
AEVVKIRDSFSNQNTETKDTKSN [R23N]	5.26
AEVVKIRDSFSNQNTETKDTKSP [R23P]	5.32
AEVVKIRDSFSNQNTETKDTKSQ [R23Q]	5.65
AEVVKIRDSFSNQNTETKDTKST [R23T]	5.55
AEVVKIRDSFSNQNTETKDTKSV [R23V]	5.51
AEVVKIRDSFSNQNTETKDTKSW [R23W]	3.23
AEVVKIRDSFSNQNTETKDTKSY [R23Y]	4.56

Variants of: B2
Test: as above
Conditions: c terminus: a fixed tail appended

Variant	protein stability index
AMVRFLLEAGADQEHKTDEMHTAL [E1A]	2.3
CMVRFLLEAGADQEHKTDEMHTAL [E1C]	2.48
DMVRFLLEAGADQEHKTDEMHTAL [E1D]	2.82
FMVRFLLEAGADQEHKTDEMHTAL [E1F]	2.56
GMVRFLLEAGADQEHKTDEMHTAL [E1G]	3.41
HMVRFLLEAGADQEHKTDEMHTAL [E1H]	2.75
IMVRFLLEAGADQEHKTDEMHTAL [E1I]	1.74
KMVRFLLEAGADQEHKTDEMHTAL [E1K]	2.48
LMVRFLLEAGADQEHKTDEMHTAL [E1L]	2.16
MMVRFLLEAGADQEHKTDEMHTAL [E1M]	1.97
NMVRFLLEAGADQEHKTDEMHTAL [E1N]	3.37
PMVRFLLEAGADQEHKTDEMHTAL [E1P]	4.17
QMVRFLLEAGADQEHKTDEMHTAL [E1Q]	2.9
RMVRFLLEAGADQEHKTDEMHTAL [E1R]	2.81
SMVRFLLEAGADQEHKTDEMHTAL [E1S]	3.41
TMVRFLLEAGADQEHKTDEMHTAL [E1T]	2.73
VMVRFLLEAGADQEHKTDEMHTAL [E1V]	2.12
WMVRFLLEAGADQEHKTDEMHTAL [E1W]	2.05
YMVRFLLEAGADQEHKTDEMHTAL [E1Y]	2.54
EAVRFLLEAGADQEHKTDEMHTAL [M2A]	3.71
ECVRFLLEAGADQEHKTDEMHTAL [M2C]	3.4
